Experimental data as given in CN113214393A.

Molecular target: IL-6R (UniProt P08887)
Test: chemiluminescent immunoassay; ABEI-labelled human IL-6 on IL-6R-coated magnetic beads, diluent only (no antibody); same control value printed in all four columns

UniProt P08887, sequence (P08887 20-358 limits assumed): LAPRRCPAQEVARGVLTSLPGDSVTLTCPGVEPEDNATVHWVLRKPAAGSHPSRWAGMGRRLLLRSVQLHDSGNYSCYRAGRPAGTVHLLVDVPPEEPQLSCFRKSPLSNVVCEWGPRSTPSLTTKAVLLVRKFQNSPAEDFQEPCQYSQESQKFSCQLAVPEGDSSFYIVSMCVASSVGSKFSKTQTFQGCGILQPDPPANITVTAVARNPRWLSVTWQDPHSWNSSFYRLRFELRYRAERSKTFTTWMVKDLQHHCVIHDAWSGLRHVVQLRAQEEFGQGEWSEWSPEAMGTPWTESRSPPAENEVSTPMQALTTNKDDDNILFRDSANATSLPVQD

RLU (相对光强度): 606000 RLU
Substance: 人IL-6抗原 (from UniProt P05231 30-212) (ligand)
